Results reported in US20240034757A1 (OXFORD UNIVERSITY INNOVATION, published 2024).
Where a chain is given by its changes, count along the chain named. In names and notes the source's numbering stands.

Columns and labels:
[1] = biological target: CCL7_HUMAN (human, UniProt P80098 24-99); assay: BLI
[2] = biological target: T1, CCL8_HUMAN (human, UniProt P80075 24-99); assay: BLI
T1 sequence (looked up): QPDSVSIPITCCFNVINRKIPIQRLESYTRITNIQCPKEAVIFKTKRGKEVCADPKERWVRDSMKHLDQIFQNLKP

[3] = biological target: CCL11_HUMAN (human, UniProt P51671 24-97); assay: BLI
Sequence of CCL11_HUMAN (P51671 24-97 limits assumed): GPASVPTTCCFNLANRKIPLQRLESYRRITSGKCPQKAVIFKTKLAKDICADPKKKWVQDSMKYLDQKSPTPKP

[4] = biological target: CCL13_HUMAN (human, UniProt Q99616 24-98); assay: BLI
Sequence of CCL13_HUMAN (Q99616 24-98 limits assumed): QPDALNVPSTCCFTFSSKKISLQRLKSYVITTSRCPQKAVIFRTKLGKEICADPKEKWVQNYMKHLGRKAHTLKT

[5] = biological target: T2, CCL14_HUMAN (human, UniProt Q16627 22-93); assay: BLI
T2 sequence: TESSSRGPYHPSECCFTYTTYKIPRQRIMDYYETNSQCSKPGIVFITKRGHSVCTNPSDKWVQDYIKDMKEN

[6] = biological target: T3, CCL15_HUMAN (human, UniProt Q16663 22-113); assay: BLI
T3 sequence: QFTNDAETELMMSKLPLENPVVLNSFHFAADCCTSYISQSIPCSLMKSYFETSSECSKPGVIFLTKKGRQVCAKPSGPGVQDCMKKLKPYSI

[7] = biological target: T4, CCL17_HUMAN (human, UniProt Q92583 24-94); assay: BLI
T4 sequence: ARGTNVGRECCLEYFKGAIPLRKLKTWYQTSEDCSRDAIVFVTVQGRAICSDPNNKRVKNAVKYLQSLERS

[8] = biological target: T5, CCL18_HUMAN (human, UniProt P55774 21-89); assay: BLI
T5 sequence: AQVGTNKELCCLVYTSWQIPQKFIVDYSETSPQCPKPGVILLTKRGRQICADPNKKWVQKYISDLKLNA

[9] = biological target: T6, CCL19_HUMAN (human, UniProt Q99731 22-98); assay: BLI
T6 sequence: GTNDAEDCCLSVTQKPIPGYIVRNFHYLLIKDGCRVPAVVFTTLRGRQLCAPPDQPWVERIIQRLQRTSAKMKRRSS

[10] = biological target: CCL20_HUMAN (human, UniProt P78556 27-96); assay: BLI
Sequence of CCL20_HUMAN (P78556 27-96 limits assumed): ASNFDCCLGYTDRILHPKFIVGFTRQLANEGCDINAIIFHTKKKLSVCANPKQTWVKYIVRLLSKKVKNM

[11] = biological target: T7, CCL21_HUMAN (human, UniProt O00585 24-134); assay: BLI
T7 sequence: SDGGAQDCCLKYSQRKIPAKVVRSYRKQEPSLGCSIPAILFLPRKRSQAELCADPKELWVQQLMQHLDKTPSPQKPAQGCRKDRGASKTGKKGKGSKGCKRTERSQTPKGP

[12] = biological target: T8, CCL22_HUMAN (human, UniProt O00626 25-93); assay: BLI
T8 sequence: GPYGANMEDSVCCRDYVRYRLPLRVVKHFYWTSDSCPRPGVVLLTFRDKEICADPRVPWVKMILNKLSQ

[13] = biological target: T9, CCL23_HUMAN (human, UniProt P55773 22-120); assay: BLI
T9 sequence: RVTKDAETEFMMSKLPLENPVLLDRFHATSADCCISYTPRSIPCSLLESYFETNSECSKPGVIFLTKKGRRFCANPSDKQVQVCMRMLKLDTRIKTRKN

[14] = biological target: T10, CCL27_HUMAN (human, UniProt Q9Y4X3 25-112); assay: BLI
T10 sequence: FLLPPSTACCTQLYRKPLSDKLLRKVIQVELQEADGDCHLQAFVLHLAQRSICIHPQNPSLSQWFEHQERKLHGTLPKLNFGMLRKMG

[15] = biological target: T11, CCL1_HUMAN (human, UniProt P22362 24-96); assay: BLI
T11 sequence: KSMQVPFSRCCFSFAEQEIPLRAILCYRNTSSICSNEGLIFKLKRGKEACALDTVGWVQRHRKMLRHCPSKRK

[16] = biological target: CCL2_HUMAN (human, UniProt P13500 24-99); assay: BLI
Sequence of CCL2_HUMAN (P13500 24-99 limits assumed): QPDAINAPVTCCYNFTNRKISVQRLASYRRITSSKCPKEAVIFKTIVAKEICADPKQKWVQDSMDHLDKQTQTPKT

[17] = biological target: T12, CCL3_HUMAN (human, UniProt P10147 24-92); assay: BLI
T12 sequence: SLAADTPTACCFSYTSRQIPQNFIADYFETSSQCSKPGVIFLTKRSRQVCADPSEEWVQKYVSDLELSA

[18] = biological target: T13, CCL3L1_HUMAN (human, UniProt P16619 24-93); assay: BLI
T13 sequence: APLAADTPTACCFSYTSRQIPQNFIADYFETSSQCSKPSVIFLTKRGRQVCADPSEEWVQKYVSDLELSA

[19] = biological target: T14, CCL4_HUMAN (human, UniProt P13236 24-92); assay: BLI
T14 sequence: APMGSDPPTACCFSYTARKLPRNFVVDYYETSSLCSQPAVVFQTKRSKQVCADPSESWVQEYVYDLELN

[20] = biological target: T15, CCL4L1_HUMAN (human, UniProt Q8NHW4 24-92); assay: BLI
T15 sequence: T14 sequence with S47G

[21] = biological target: T16, CXCL10_HUMAN (human, UniProt P02778 22-98); assay: BLI [Cont.) C]
T16 sequence: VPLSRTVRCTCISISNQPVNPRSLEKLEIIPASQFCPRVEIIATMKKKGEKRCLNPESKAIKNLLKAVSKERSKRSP

[22] = biological target: T17, CXCL11_HUMAN (human, UniProt O14625 22-94); assay: BLI [Cont.) C]
T17 sequence: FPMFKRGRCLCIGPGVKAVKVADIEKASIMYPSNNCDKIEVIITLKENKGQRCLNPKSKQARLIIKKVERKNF

[23] = biological target: T18, CXCL13_HUMAN (human, UniProt O43927 23-109); assay: BLI [Cont.) C]
T18 sequence: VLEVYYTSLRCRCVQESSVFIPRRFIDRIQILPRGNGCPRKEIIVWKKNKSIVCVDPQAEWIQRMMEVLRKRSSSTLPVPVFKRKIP
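Wherever Kd is given: biolayer interferometry binding readings, curves fitting with R² below 0.9 dropped, every experiment run at least three times.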

Sequence of CCL7_HUMAN (P80098 24-99 limits assumed): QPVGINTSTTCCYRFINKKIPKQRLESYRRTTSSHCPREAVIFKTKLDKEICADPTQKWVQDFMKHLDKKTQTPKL

B1: P1243:G4S:P1156 (designed binder)
chain: RNHTEDNSTEYYDYEEARCACPARHLNNTNGTVLKLLGCHYFCNGTLCTAPDGYPCYNLTAQQVRTLTTYPNTSCAVGVCMKGTCVKNGTMEQCFKTPGGGGSADDDNELFTVQYCGMNCTKDEGGTWTGCTGKKEGCKCYHESGKNYGLCLSTEYTDFSQYGNPSDSEIEAAKPKRSDTLSH
Kd [1]: 49 nM | Kd [2]: 381 nM | Kd [3]: 19.7 nM | Kd [4]: 1.33 nM | Kd [5]: 1.99 nM | Kd [6]: 8.71 nM | Kd [7]: 3.51 nM | Kd [8]: 0.543 nM | Kd [9]: 2.92 nM | binding result [10]: no binding (tested: 300 nM) | Kd [11]: 53.8 nM | binding result [12]: no binding (tested: 300 nM) | Kd [13]: 0.632 nM | Kd [14]: 24.4 nM | binding result [15]: no binding (tested: 300 nM) | binding result [16]: no binding (tested: 300 nM) | Kd [17]: 16.4 nM | Kd [18]: 4.06 nM | Kd [19]: 19.4 nM | binding result [20]: no binding (tested: 300 nM) | binding result [21]: no binding (tested: 300 nM) | binding result [22]: no binding (tested: 300 nM) | binding result [23]: no binding (tested: 300 nM)
